This is an account of results in the supplement of paper PMC9170038.

This data set concerns MS2 coat protein. The experiment in a line: apparent KD of MS2 coat protein; higher = weaker reporter binding. To be noted: Eterna round: R107. Put shortly:
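Designed RNA switches were transcribed on-chip from Illumina sequencing clusters and titrated with SNAP-549-labelled MS2 coat protein in twofold steps from 0.7 or 1.5 nM up to 3 µM. Each step lasted 0.8–1.5 h at first and 10–20 min by the end, in 100 mM Tris-HCl pH 7.5, 80 mM KCl and 4 mM MgCl2, without or with constant ligand. Apparent KD is the median, for each design, of fits to normalised cluster binding curves.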

Setting [1] is: input ligand: theophylline 20 uM.
Setting [2] is: input ligand: theophylline 2 mM.
Where [3] appears, read: input ligand: tryptophan 2.4 mM.

Take “GGAUCAGGAUCGGCCGCCACUGAUAGUGAUCCAACGACAUGAGGAUCACCCAUGUACAUUUUAAUCAGGACCGGGAUCAAGUUCC [Tryp B Ex t7]”: the “apparent KD of MS2 coat protein” value runs as follows: (input ligand: arginine 13.2 mM) 0.04 µM; under setting [1], 0.189 µM; under setting [2], 0.327 µM.

Turning to “GGAUUACGAAAGUAGUCCUCAAGUUCGAGACGAGGACCGGUACGGCCGCCACUCGAACAUGAGGAUCACCCAUGUAGCGAAAGCU [Tryptophan A 22]”, the “apparent KD of MS2 coat protein” value (input ligand: arginine 13.2 mM) is 0.0866 µM; the “apparent KD of MS2 coat protein” value (input ligand: none) was 0.195 µM; the “apparent KD of MS2 coat protein” value under setting [1] is 0.382 µM; the “apparent KD of MS2 coat protein” value under setting [2] turned out to be 0.425 µM; the “apparent KD of MS2 coat protein” value under setting [3] came out at 0.181 µM.

Regarding “GGCACAUAGUCGGCCGCCACUAGAAUAUAGUGGAAUAACAUGAGGAUCACCCAUGUAUUUGGGACUAGGACCGGGACUAUGUGCC [Bear]”, the “apparent KD of MS2 coat protein” value (input ligand: arginine 13.2 mM) stood at 0.0332 µM; the “apparent KD of MS2 coat protein” value (input ligand: none) amounted to 0.0337 µM; the “apparent KD of MS2 coat protein” value under setting [1] came out at 0.0419 µM; the “apparent KD of MS2 coat protein” value under setting [2] came to 0.0422 µM; the “apparent KD of MS2 coat protein” value under setting [3] came to 0.0202 µM.

With “GGCACAUAGUCGGCCGCCACUAGUGGGAAAUGGGAGAACAUGAGGAUCACCCAUGUAUUAUAGCCUAGGACCGGGACUAUGUGCC [Mammoth]”, the “apparent KD of MS2 coat protein” value is 0.145 µM (input ligand: arginine 13.2 mM), 0.196 µM under setting [1] and 0.259 µM under setting [2].

Turning to “GGCCCACAUGAGGAUCACCCAUGUGUGGAUACCAGCCUCAUUUAGGGCCCUUGGCAGCCAGAUAGUAACAAGUCCGAAACACAGA [theeternabot_sameState_MS2_Theo_A_24]”, the “apparent KD of MS2 coat protein” value stood at 0.0262 µM (input ligand: arginine 13.2 mM), 0.203 µM under setting [1] and 0.144 µM under setting [3].

For “GGCCGGUGCGCUUUGAAGCGACGGCGUGAUACCAGAUGUAAGAGCGUCCCUUGGCAGCACGUUUACAUGAGGAUCACCCAUGUCU [Zaveusxe]”, the “apparent KD of MS2 coat protein” value is, setting by setting: (input ligand: arginine 13.2 mM) 0.0532 µM; under setting [1], 0.256 µM; under setting [3], 0.22 µM.

For “GGGUAAGAUCCGGAUACCAGCGAACAUGAGGAUCACCCAUGUGACCUAAGAUAGGCUAAACGCCCUUGGCAGCCGAAAUAGCGUU [Same State Theophylline B GF 5]”, the “apparent KD of MS2 coat protein” value reads like this: (input ligand: arginine 13.2 mM) 0.0249 µM; (input ligand: none) 0.0364 µM; under setting [1], 0.043 µM; under setting [2], 0.0382 µM; under setting [3], 0.0395 µM.

For the sequence “GGGUACAUCGCGGCCGCCACUCAUGUAAAUGCAUGAGGAUCACCCAUGUCGAUGGAGACAUCGGAGAGGACCGGGUGAUGUACCG”, the “apparent KD of MS2 coat protein” value by setting is: (input ligand: arginine 13.2 mM) 0.108 µM; (input ligand: none) 0.259 µM; under setting [1], 0.268 µM; under setting [2], 0.313 µM; under setting [3], 0.193 µM.

As for “GGGUACAUCGCGGCCGCCACUCGUGUAAAUACAUGAGGAUCACCCAUGUCGAUGGAGACAUCGGCGAGGACCGGGUGAUGUACCG”, the “apparent KD of MS2 coat protein” value (input ligand: arginine 13.2 mM) was found to be 0.0431 µM; the “apparent KD of MS2 coat protein” value (input ligand: none) turned out to be 0.0475 µM; the “apparent KD of MS2 coat protein” value under setting [1] is 0.0542 µM; the “apparent KD of MS2 coat protein” value under setting [2] was found to be 0.0535 µM; the “apparent KD of MS2 coat protein” value under setting [3] was 0.0115 µM.

On to “GGUAACUCUACGGCCGCCACUGAACAUGAGGAUCACCCAUGUAAUGUUCAGAUUUUUUUUUUUUACAGGACCGGGUAGUGUUACC [Tryptophan B 4]”, for which the “apparent KD of MS2 coat protein” value reads like this: (input ligand: arginine 13.2 mM) 0.107 µM; under setting [1], 0.276 µM; under setting [2], 0.275 µM.

On to “GGUACAUGAGGAUCACCCAUGUAUUAGUGCCGAGGACCGGUACGGCCGCCACUCGCUUCACAUGAGGAUCACCCAUGUGUCACUG [SSTA DOUBLE!!! :-D #14]”, for which the “apparent KD of MS2 coat protein” value runs as follows: (input ligand: arginine 13.2 mM) 0.0236 µM; under setting [1], 0.0359 µM; under setting [2], 0.0361 µM.

Consider “GGUAUGUAUUCGGAAACGAAUGCAUACCAACGAGGACCGGUACGGCCGCCACUCGCCGUCCUCAAACAUGAGGAUCACCCAUGUA [Ex Tryptophan A 7]”, for which the “apparent KD of MS2 coat protein” value (input ligand: arginine 13.2 mM) was found to be 0.0195 µM, the “apparent KD of MS2 coat protein” value under setting [1] came to 0.0305 µM and the “apparent KD of MS2 coat protein” value under setting [2] came to 0.0306 µM.

As to “GGUAUGUAUUCGGAAACGAAUGCAUACCAACGAGGACCGGUACGGCCGCCACUCGGGCCGUGAUCACAUGAGGAUCACCCAUGUA [Ex Tryptophan A 5]”, the “apparent KD of MS2 coat protein” value runs as follows: (input ligand: arginine 13.2 mM) 0.0298 µM; under setting [1], 0.0492 µM; under setting [2], 0.0423 µM.

For the sequence “GGUCCCGUCGGAAGGAGCGACAUGAGGAUCACCCAUGUCUCCCGUUAUGGGAGUUCUUUAGGUCAGGUAGGUCGCCGGCGGGAGC [#1 Exclusion - Arginine B Attempt #15 (Inspired by Omei)]”, the “apparent KD of MS2 coat protein” value by setting is: (input ligand: arginine 13.2 mM) 0.0524 µM; (input ligand: none) 0.0945 µM; under setting [1], 0.123 µM; under setting [2], 0.141 µM; under setting [3], 0.074 µM.

In the case of “GGUGGACUUUCGGCCGCCACUGAGAGAGUCGUGUGAACAUGAGGAUCACCCAUGUAAUAUAUAUACAGGACCGGGAGGGUUGUCC [4.O]”, the “apparent KD of MS2 coat protein” value is, setting by setting: (input ligand: arginine 13.2 mM) 0.0206 µM; under setting [1], 0.0287 µM; under setting [2], 0.025 µM.

Consider “GGUGGCUGGAUUGAUACCAGCCACCACCGAUAGACCACAUGAGGAUCACCCAUGUUGGGUGGCCCUUGGCAGCAGUCCAGCUGCC [#1 Same State - Theophylline B Attempt #9 (HarryS)]”, for which the “apparent KD of MS2 coat protein” value reads like this: (input ligand: arginine 13.2 mM) 0.0705 µM; (input ligand: none) 0.388 µM; under setting [1], 0.649 µM; under setting [2], 0.828 µM; under setting [3], 0.886 µM.

For “GGUGGGACUUGUGAUACCAGCCCAGUUCUAAUCGAACUGCACAUGAGGAUCACCCAUGUCGGCCCUUGGCAGCAUGAGUAUUUAU [Esceesor]”, the “apparent KD of MS2 coat protein” value is, setting by setting: (input ligand: arginine 13.2 mM) 0.146 µM; under setting [1], 0.16 µM; under setting [3], 0.326 µM.

With “GGUUACUCUACGGCCGCCACUGGGCAUGUAAAUAACAUGAGGAUCACCCAUGUGGAAUAAAAUUACAGGACCGGGUAGUGUAACC [Tryptophan B 22]”, the “apparent KD of MS2 coat protein” value (input ligand: arginine 13.2 mM) worked out at 0.105 µM, the “apparent KD of MS2 coat protein” value under setting [1] stood at 0.27 µM and the “apparent KD of MS2 coat protein” value under setting [2] amounted to 0.352 µM.
